Four molecules from patent US20180094059A1 (UNIVERSITAT STUTTGART, published 2018) can be followed below.

Assay [1] addresses T1, EGFR on EGFR-positive tumor cell lines (UniProt P00533 25-1210, limits assumed).
T1 construct: whole, on cells; The cell line is named under assay or readout; also called EGFR+ cell lines
Briefly: flow cytometry, HCT116 cells.

A further assay has as its target T2, EGFR-Fc (UniProt P00533 25-645).
T2 construct: also called purified EGFR-Fc; not shown: Fc part
The assay is described as follows: ELISA, EGFR-Fc.

Assay [2] has as its target T1, EGFR on EGFR-positive tumor cell lines. Briefly: flow cytometry, Colo205 cells. Background: Flow cytometry measures light scatter and fluorescence of single cells or particles in a stream.
Assay [3] shares this target. The assay is described as follows: flow cytometry, Colo205 cells. The source holds these as a separate data set.
Assay [4] shares this target. Briefly: flow cytometry, HCT116 cells. This is another data set of the same source.
Another assay has as its target T3, DcR2-Fc (human, UniProt Q9UBN6 56-211).
T3 construct: extracellular domain; also called TRAIL-R4-Fc; not shown: Fc-part
T3 sequence (looked up): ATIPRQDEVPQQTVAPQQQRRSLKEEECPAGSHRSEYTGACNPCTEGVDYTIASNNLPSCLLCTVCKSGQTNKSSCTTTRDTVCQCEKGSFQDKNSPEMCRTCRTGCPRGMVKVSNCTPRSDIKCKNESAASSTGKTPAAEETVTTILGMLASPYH
Briefly: ELISA, coated DcR2-Fc (3 µg/ml), anti-Flag-HRP detection.

Another assay deals with T4, TRAIL-R1-Fc (human, UniProt O00220 24-239).
T4 construct: extracellular domain; also called DR4-Fc; not shown: Fc-part
Briefly: ELISA, coated DR4-Fc (3 µg/ml), anti-Flag-HRP detection. Background: ELISA stands for enzyme-linked immunosorbent assay.

Assay [5] concerns the target T1, EGFR on EGFR-positive tumor cell lines. Briefly: cell-based or functional assay.
In assay [6] the target is T5, TRAIL-R2-Fc (human, UniProt O14763 56-210).
T5 construct: extracellular domain; also called DR5-Fc; DR5-Fc fusion protein; not shown: Fc-part
The assay is described as follows: ELISA, coated DR5-Fc (3 µg/ml), anti-Flag-HRP detection.

For assay [7], the target named is T5, TRAIL-R2-Fc. Briefly: ELISA, TRAIL-R2-Fc.
Protocol: (§1) The new scTRAIL₃-[sequence] fusion proteins were evaluated concerning their ability to bind to their corresponding target antigen and TRAIL-R2 by ELISA as well as by IF flow cytometry using intact Colo 205 cells. Antigen binding was analyzed in ELISA using Fc fusion proteins of EGFR, HER2 and HER3.
The target of a further assay is T6, HER3-Fc (UniProt P21860 20-643).
T6 construct: not shown: Fc part
The assay is described as follows: ELISA, HER3-Fc.

Protocol for DcR2-Fc: (§2) The binding properties of the scTRAIL₃-fusion proteins to all five human TRAIL receptors were analyzed via ELISA. The extracellular domain (ECD) of the human death receptors (DR) 4 (TRAIL-R1) and 5 (TRAIL-R2), or of the human decoy receptors (DcR) 1 (TRAIL-R3) and 2 (TRAIL-R4) as well as human osteoprotegerin (OPG) was fused to the N-terminus of the Fc-part and was expressed in transiently transfected HEK293 cells. ELISA-plates were coated with ECD-Fc or OPG-Fc fusion proteins (3 μg/ml). […] Bound scTRAIL₃-fusion proteins were detected via HRP-conjugated anti-Flag antibody.
Protocol for HER3-Fc: Binding of targeted dimeric scTRAIL₃-[sequence] fusion proteins to EGFR-Fc (A), HER2-Fc (B), and HER3-Fc (C) was analyzed by ELISA. Optical density was measured at 450 nm. Data are represented as mean±S.D. (n=3).
as §1
Protocol for TRAIL-R1-Fc: as §2

B1: anti-EGFR IgG (antibody, V domains shown)
VH: EVQLVESGGGLVQPGGSLRLSCAASGFSLTNYGVHWVRQAPGKGLEWLGVIWSGGNTDYNTPFTSRFTISRDNSKNTLYLQMNSLRAEDTAVYYCARALTYYDYEFAYWGQGTTVTVSS
VL: DIQLTQSPSFLSASVGDRVTITCRASQSIGTNIHWYQQKPGKAPKLLIKYASESISGVPSRFSGSGSGTEFTLTISSLQPEDFATYYCQQNNNWPTTFGAGTKLEIKR
notes: EGFR-specific human IgG1 with mutated Fc domain (ADCC/CDC), kappa light chain, N-terminal FLAG tag on the heavy chain; derived from cetuximab by humanization; also called hu225 (anti-EGFR) IgG; anti-EGFR human IgG1 scaffold antibody
B1: the EC50 in [1] is 0.07 nM; with EGFR-Fc, 0.156 nM; in [2], 0.028 nM; in assay [3], 0.06 nM; in assay [4], 0.008 nM.

B2: Db10-Glyco-scTRAIL3-FAVSGAA (other)
chain: LEASDYKDDDDKGAEVQLVESGGGLVQPGGSLRLSCAASGFSLTNYGVHWVRQAPGKGLEWLGVIWSGGNTDYNTPFTSRFTISRDNSKNTLYLQMNSLRAEDTAVYYCARALTYYDYEFAYWGQGTTVTVSSGGGGSGGGGSDIQLTQSPSFLSASVGDRVTITCRASQSIGTNIHWYQQKPGKAPKLLIKYASESISGVPSRFSGSGSGTEFTLTISSLQPEDFATYYCQQNNNWPTTFGAGTKLEIKRAAAGNGTSNGTSEFGGAAAHITGTRGRSNTLSSPNSKNEKALGRKINSWESSRSGHSFLSNLHLRNGELVIHEKGFYYIYSQTYFRFQEEIKENTKNDKQMVQYIYKYTSYPDPILLMKSARNSCWSKDAEYGLYSIYQGGIFELKENDRIFVSVTNEHLIDMDHEASFFGAFAVSGAAAHITGTRGRSNTLSSPNSKNEKALGRKINSWESSRSGHSFLSNLHLRNGELVIHEKGFYYIYSQTYFRFQEEIKENTKNDKQMVQYIYKYTSYPDPILLMKSARNSCWSKDAEYGLYSIYQGGIFELKENDRIFVSVTNEHLIDMDHEASFFGAFAVSGAAAHITGTRGRSNTLSSPNSKNEKALGRKINSWESSRSGHSFLSNLHLRNGELVIHEKGFYYIYSQTYFRFQEEIKENTKNDKQMVQYIYKYTSYPDPILLMKSARNSCWSKDAEYGLYSIYQGGIFELKENDRIFVSVTNEHLIDMDHEASFFGAFAVS
modifications: glycosylated connecting peptide
notes: also called Db10hu225-Glyco-scTRAIL3-FAVSGAA; Db10-glyco-scTRAIL3-FAVSGGA
Turning to B2, the binding result with DcR2-Fc is “binds”. In addition, the binding result with TRAIL-R1-Fc is reported as “binds”. Besides, in assay [5], the “EC50 of cell death induction, Colo205, with Bortezomib” value came out at 0.013 nM; the “EC50 of cell death induction, Colo205, with Bortezomib + Cetuximab” value was found to be 0.066 nM; the “EC50 of cell death induction, HCT116, with Bortezomib” value is 0.039 nM; the “EC50 of cell death induction, HCT116, with Bortezomib + Cetuximab” value amounted to 0.298 nM. For the same molecule, in [5], the “EC50 of cell death induction, HT1080, with Bortezomib” value stood at 0.0007 nM and the “EC50 of cell death induction, HT1080, with Bortezomib + Cetuximab” value was 0.008 nM. Also, the binding result with TRAIL-R2-Fc [6] is given as “binds”.

B3: scFv3M6-EHD2-scTRAIL3-FLVGGGPQRVA (other)
chain: EVQLLESGGGLVQPGGSLRLSCAASGFTFSHYVMAWVRQAPGKGLEWVSSISSSGGWTLYADSVKGRFTISRDNSKNTLYLQMNSLRAEDTAVYYCTRGLKMATIFDYWGQGTLVTVSSGGGGSGGGGSGGGGSQSALTQPASVSGSPGQSITISCTGTSSDVGSYNVVSWYQQHPGKAPKLIIYEVSQRPSGVSNRFSGSKSGNTASLTISGLQTEDEADYYCSSYAGSSIFVIFGGGTKVTVLAAAGGSGGDFTPPTVKILQSSCDGGGHFPPTIQLLCLVSGYTPGTINITWLEDGQVMDVDLSTASTTQEGELASTQSELTLSQKHWLSDRTYTCQVTYQGHTFEDSTKKCADSNGGSGGASSGGGPQRVAAHITGTRGRSNTLSSPNSKNEKALGRKINSWESSRSGHSFLSNLHLRNGELVIHEKGFYYIYSQTYFRFQEEIKENTKNDKQMVQYIYKYTSYPDPILLMKSARNSCWSKDAEYGLYSIYQGGIFELKENDRIFVSVTNEHLIDMDHEASFFGAFLVGGGPQRVAAHITGTRGRSNTLSSPNSKNEKALGRKINSWESSRSGHSFLSNLHLRNGELVIHEKGFYYIYSQTYFRFQEEIKENTKNDKQMVQYIYKYTSYPDPILLMKSARNSCWSKDAEYGLYSIYQGGIFELKENDRIFVSVTNEHLIDMDHEASFFGAFLVGGGPQRVAAHITGTRGRSNTLSSPNSKNEKALGRKINSWESSRSGHSFLSNLHLRNGELVIHEKGFYYIYSQTYFRFQEEIKENTKNDKQMVQYIYKYTSYPDPILLMKSARNSCWSKDAEYGLYSIYQGGIFELKENDRIFVSVTNEHLIDMDHEASFFGAFLV
Consider B3, for which the EC50 with TRAIL-R2-Fc [7] is 2.65 nM; with HER3-Fc it was 11.6 nM.

B4: anti-EGFR IgG LC/HC-scTRAIL3-FAVSGAA (other)
heavy: ASDYKDDDDKGAEVQLVESGGGLVQPGGSLRLSCAASGFSLTNYGVHWVRQAPGKGLEWLGVIWSGGNTDYNTPFTSRFTISRDNSKNTLYLQMNSLRAEDTAVYYCARALTYYDYEFAYWGQGTTVTVSSASTKGPSVFPLAPSSKSTSGGTAALGCLVKDYFPEPVTVSWNSGALTSGVHTFPAVLQSSGLYSLSSVVTVPSSSLGTQTYICNVNHKPSNTKVDKKVEPKSCDKTHTCPPCPAPPVAGPSVFLFPPKPKDTLMISRTPEVTCVVVDVSHEDPEVKFNWYVDGVEVHNAKTKPREEQYNSTYRVVSVLTVLHQDWLNGKEYKCKVSNKGLPSSIEKTISKAKGQPREPQVYTLPPSRDELTKNQVSLTCLVKGFYPSDIAVEWESNGQPENNYKTTPPVLDSDGSFFLYSKLTVDKSRWQQGNVFSCSVMHEALHNHYTQKSLSLSPGKAAGNGTSNGTSEFGGAAAHITGTRGRSNTLSSPNSKNEKALGRKINSWESSRSGHSFLSNLHLRNGELVIHEKGFYYIYSQTYFRFQEEIKENTKNDKQMVQYIYKYTSYPDPILLMKSARNSCWSKDAEYGLYSIYQGGIFELKENDRIFVSVTNEHLIDMDHEASFFGAFAVSGAAAHITGTRGRSNTLSSPNSKNEKALGRKINSWESSRSGHSFLSNLHLRNGELVIHEKGFYYIYSQTYFRFQEEIKENTKNDKQMVQYIYKYTSYPDPILLMKSARNSCWSKDAEYGLYSIYQGGIFELKENDRIFVSVTNEHLIDMDHEASFFGAFAVSGAAAHITGTRGRSNTLSSPNSKNEKALGRKINSWESSRSGHSFLSNLHLRNGELVIHEKGFYYIYSQTYFRFQEEIKENTKNDKQMVQYIYKYTSYPDPILLMKSARNSCWSKDAEYGLYSIYQGGIFELKENDRIFVSVTNEHLIDMDHEASFFGAFAVS
light: DIQLTQSPSFLSASVGDRVTITCRASQSIGTNIHWYQQKPGKAPKLLIKYASESISGVPSRFSGSGSGTEFTLTISSLQPEDFATYYCQQNNNWPTTFGAGTKLEIKRTVAAPSVFIFPPSDEQLKSGTASVVCLLNNFYPREAKVQWKVDNALQSGNSQESVTEQDSKDSTYSLSSTLTLSKADYEKHKVYACEVTHQGLSSPVTKSFNRGECAAGNGTSNGTSEFGGAAAHITGTRGRSNTLSSPNSKNEKALGRKINSWESSRSGHSFLSNLHLRNGELVIHEKGFYYIYSQTYFRFQEEIKENTKNDKQMVQYIYKYTSYPDPILLMKSARNSCWSKDAEYGLYSIYQGGIFELKENDRIFVSVTNEHLIDMDHEASFFGAFAVSGAAAHITGTRGRSNTLSSPNSKNEKALGRKINSWESSRSGHSFLSNLHLRNGELVIHEKGFYYIYSQTYFRFQEEIKENTKNDKQMVQYIYKYTSYPDPILLMKSARNSCWSKDAEYGLYSIYQGGIFELKENDRIFVSVTNEHLIDMDHEASFFGAFAVSGAAAHITGTRGRSNTLSSPNSKNEKALGRKINSWESSRSGHSFLSNLHLRNGELVIHEKGFYYIYSQTYFRFQEEIKENTKNDKQMVQYIYKYTSYPDPILLMKSARNSCWSKDAEYGLYSIYQGGIFELKENDRIFVSVTNEHLIDMDHEASFFGAFAVS
notes: scTRAIL3-FAVSGAA on both light and heavy chains (tetrameric form)
As to B4, the concentration giving a half-maximal response (EC50) in assay [1] stood at 0.091 nM; with EGFR-Fc, 0.315 nM; in assay [3], 0.146 nM.

What is called EC50 is the concentration needed to bring the measured effect to its halfway point. Low readings indicate an effect from little substance, high ones a need for much substance.
